From paper PMC5383425, “Differential CLE peptide perception by plant receptors implicated from structural and functional analyses of TDIF-TDR interactions” (PLoS ONE, 2017)
Square brackets hold non-standard residues; d marks the D form. Ends that are not written are not given here. Hyp = O=C(O)[C@@H]1C[C@@H](O)CN1

Tests used:
Test in all cases: ITC; 0.5–1 mM peptide titrated into 10–40 μM ecdTDR; 25°C; 10 mM sodium citrate, 100 mM NaCl, pH 5.5; fitted to one set of binding sites; MicroCal Auto-iTC200
Conditions in all cases: both partners purified
[1] = target: T1, ecdTDR F279 alanine mutant (Arabidopsis thaliana, UniProt Q9FII5 30-642, alanine substitution of F279)
T1 construct: TDR/PXY of A. thaliana, extracellular domain, residues 30-642; The text says only 'mutational analyses' of F279; source: High Five insect cells (baculovirus), secreted, purified as the wild type (Ni-NTA, size-exclusion chromatography)
T1 sequence (looked up): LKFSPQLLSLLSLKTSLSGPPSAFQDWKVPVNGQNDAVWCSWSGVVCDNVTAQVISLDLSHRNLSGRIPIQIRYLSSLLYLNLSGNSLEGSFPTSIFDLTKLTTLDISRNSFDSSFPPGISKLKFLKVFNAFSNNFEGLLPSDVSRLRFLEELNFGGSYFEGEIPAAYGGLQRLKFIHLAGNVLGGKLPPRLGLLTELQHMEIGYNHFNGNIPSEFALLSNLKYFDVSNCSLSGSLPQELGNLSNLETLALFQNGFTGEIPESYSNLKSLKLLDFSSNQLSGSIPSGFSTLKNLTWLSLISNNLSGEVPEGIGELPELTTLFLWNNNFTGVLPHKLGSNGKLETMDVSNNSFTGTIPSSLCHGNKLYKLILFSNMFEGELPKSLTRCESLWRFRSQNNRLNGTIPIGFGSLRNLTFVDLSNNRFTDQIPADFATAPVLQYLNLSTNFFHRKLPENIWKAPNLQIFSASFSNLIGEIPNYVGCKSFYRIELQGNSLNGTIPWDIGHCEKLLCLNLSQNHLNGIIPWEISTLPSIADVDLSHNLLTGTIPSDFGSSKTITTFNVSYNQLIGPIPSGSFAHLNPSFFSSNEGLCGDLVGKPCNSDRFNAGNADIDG

[2] = target: T2, ecdTDR Q282A mutant (Arabidopsis thaliana, UniProt Q9FII5 30-642, Q282A)
T2 construct: TDR/PXY of A. thaliana, extracellular domain, residues 30-642; source: High Five insect cells (baculovirus), secreted, purified as the wild type (Ni-NTA, size-exclusion chromatography)
T2 sequence (looked up): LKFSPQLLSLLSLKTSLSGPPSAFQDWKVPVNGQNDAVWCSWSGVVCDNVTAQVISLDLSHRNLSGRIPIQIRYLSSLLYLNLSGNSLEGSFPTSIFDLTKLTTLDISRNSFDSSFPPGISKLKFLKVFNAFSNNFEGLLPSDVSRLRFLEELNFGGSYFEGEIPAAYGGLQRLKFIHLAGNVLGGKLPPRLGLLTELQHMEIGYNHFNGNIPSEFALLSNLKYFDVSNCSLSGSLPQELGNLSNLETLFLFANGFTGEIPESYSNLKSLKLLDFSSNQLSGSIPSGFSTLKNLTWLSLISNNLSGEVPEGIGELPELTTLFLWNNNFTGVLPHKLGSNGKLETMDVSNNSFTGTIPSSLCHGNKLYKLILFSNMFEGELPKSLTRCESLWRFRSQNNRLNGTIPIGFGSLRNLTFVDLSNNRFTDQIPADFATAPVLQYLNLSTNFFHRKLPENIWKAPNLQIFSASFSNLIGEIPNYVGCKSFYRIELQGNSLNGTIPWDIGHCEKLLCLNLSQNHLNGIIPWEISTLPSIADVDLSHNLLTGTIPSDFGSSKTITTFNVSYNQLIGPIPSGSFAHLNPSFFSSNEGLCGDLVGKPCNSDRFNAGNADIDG

[3] = target: T3, ecdTDR F281 alanine mutant (Arabidopsis thaliana, UniProt Q9FII5 30-642, alanine substitution of F281)
T3 construct: TDR/PXY of A. thaliana, extracellular domain, residues 30-642; The text says only 'mutational analyses' of F281; source: High Five insect cells (baculovirus), secreted, purified as the wild type (Ni-NTA, size-exclusion chromatography)
T3 sequence (looked up): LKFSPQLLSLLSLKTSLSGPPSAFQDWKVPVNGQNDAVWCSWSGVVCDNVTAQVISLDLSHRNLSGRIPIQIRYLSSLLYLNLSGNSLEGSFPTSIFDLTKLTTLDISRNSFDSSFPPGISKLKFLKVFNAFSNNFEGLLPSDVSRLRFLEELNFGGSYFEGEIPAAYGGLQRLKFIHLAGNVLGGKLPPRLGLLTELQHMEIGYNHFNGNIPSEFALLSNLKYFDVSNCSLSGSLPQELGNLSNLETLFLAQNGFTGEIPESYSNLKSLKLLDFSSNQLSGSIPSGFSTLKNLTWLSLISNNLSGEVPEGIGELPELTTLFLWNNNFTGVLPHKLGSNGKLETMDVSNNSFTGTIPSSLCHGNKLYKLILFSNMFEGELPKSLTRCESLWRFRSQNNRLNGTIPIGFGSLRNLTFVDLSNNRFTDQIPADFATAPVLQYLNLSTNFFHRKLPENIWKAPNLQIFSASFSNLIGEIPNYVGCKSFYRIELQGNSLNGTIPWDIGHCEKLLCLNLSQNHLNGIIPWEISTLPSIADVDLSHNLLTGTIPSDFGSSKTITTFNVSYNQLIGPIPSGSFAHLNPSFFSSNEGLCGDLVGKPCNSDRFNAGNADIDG

Measured: binding result

B1: Tracheary Element Differentiation Inhibitory Factor (TDIF) peptide (peptide)
peptide: HEV[Hyp]SG[Hyp]NPISN
notes: TDIF, the 12-residue CLE peptide processed from CLE41 and CLE44 of A. thaliana; printed as HEV(Hyp)SG(Hyp)NPISN; numbers count on: the 12-residue peptide; CLE44 encodes the same peptide; also called wild type TDIF; wtTDIF; source: synthetic peptide (peptide 2.0)
binds: [1] | [2] | [3]
